Test results published in patent US20240376225A1 (CHILDREN S MEDICAL CENTER, published 2024).

Target: T1, human CD21 on Raji B cells or primary B cells (human, UniProt P20023 21-1033)
T1 construct: whole, on cells; also called cell-surface human CD21; Raji cells
T1 sequence (looked up): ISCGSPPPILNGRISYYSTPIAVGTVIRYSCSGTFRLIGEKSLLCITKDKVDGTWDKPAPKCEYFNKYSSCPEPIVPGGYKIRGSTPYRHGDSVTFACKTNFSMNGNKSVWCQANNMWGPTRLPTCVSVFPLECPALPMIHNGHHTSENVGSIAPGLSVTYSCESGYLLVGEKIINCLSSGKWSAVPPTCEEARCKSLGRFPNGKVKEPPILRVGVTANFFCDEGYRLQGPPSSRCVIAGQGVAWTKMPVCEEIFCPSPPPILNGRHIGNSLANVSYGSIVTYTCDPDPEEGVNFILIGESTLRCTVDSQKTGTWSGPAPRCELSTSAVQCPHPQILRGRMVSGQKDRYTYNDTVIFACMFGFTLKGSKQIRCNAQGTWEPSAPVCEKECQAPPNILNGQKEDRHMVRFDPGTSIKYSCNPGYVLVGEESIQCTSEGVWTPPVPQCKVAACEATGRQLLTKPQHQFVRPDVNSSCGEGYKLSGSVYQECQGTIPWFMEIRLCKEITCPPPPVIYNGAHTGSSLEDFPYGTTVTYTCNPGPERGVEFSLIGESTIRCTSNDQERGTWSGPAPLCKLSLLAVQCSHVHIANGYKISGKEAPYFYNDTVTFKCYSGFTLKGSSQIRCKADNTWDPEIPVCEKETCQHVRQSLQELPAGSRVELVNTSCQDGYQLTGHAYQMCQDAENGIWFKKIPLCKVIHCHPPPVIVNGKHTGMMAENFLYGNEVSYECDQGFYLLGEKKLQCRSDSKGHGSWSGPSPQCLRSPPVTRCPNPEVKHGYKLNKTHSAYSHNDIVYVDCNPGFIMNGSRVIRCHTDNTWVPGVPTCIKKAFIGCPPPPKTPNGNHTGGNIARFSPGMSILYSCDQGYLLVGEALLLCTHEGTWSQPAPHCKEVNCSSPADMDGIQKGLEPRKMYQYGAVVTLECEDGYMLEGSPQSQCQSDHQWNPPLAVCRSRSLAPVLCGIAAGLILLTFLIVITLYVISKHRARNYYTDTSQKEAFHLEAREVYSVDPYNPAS
Test: Raji B cell binding, flow cytometry
Method: Ab15 binding to cell-surface human and cyno CD21 was determined using human Raji B cells (ATCC, Manassas, VA) and CHO cells over expressing cyno CD21. Cells expressing cyno CD21 were generated by transfecting CHO cells with a mammalian expression construct encoding full-length cyno CD21. Stable cell clones were selected on hygromycin-B, and their expression of cyno CD21 confirmed by flow cytometry.
For the Ab15 binding experiment, cells were dissociated with cell dissociation buffer (Sigma) and blocked on ice with PBS+3% bovine serum (BS)+human Fc blocker. Cells were stained on ice for 1 hr with 3-fold serially diluted Ab15 (starting from 50 nM), then washed with cold PBS. Secondary antibody (anti-human IgG-PE, 1:500 dilution, Invitrogen, cat. #H10104) was added on ice for 1 hr. Cells were washed with and resuspended in PBS, and analyzed for Ab15 binding on a BD Fortessa instrument.

EC50: 1.38 nM
B1: Ab15 (antibody, human IgG1, kappa, V domains shown)
VH: QVQLVQSGAEVKKPGSSVKVSCKASGGTFSSYAISWVRQAPGQGLEWMGRIIPILGIANYAQKFQGRVTITADKSTSTAYMELSSLRSEDTAVYYCAREDDSSGYYQDWGQGTLVTVSS
VL: EIVMTQSPATLSLSPGESATLSCRAGQSINSHLAWYQQKPGQSPSLLIYDASTRATGVPARFSGSGFGTEFTLTISSLQSEDFAVYFCQQYEYWYTFGQGTKLEIKR
notes: Tb-labeled in the HTRF assay; also called 36C01; SC38-36C01 (IgG1 version)
